Consider one substance from publication PMC3962895.

In this assay the target is dEV8 (8-mer self-peptide) peptide on H-2Kb (mouse). Nature of the assay: data from.

Regarding 2C TCR, the Kd (usually the equilibrium constant for the complex coming apart) is 84.1 µM.
